Experimental data reported in paper PMC8760323, “Single-chain tandem macrocyclic peptides as a scaffold for growth factor and cytokine mimetics” (Communications Biology, 2022).
Positions of bridges follow the written chain, without caps; N, C: chain ends. No end group written: not given here.

T1: human EPOR ectodomain-Fc (Homo sapiens, UniProt P19235)
T1 construct: human EPOR ectodomain-Fc; purchased R&D Systems
T1 sequence (P19235 25-250 limits assumed): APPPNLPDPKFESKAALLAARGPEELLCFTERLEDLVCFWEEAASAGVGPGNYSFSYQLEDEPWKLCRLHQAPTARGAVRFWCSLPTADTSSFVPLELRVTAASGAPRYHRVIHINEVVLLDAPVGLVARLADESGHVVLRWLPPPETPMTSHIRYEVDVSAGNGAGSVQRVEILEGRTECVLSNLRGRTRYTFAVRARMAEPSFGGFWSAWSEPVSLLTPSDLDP

T2: EPOR (Homo sapiens, UniProt P19235)
T2 sequence (P19235 25-508): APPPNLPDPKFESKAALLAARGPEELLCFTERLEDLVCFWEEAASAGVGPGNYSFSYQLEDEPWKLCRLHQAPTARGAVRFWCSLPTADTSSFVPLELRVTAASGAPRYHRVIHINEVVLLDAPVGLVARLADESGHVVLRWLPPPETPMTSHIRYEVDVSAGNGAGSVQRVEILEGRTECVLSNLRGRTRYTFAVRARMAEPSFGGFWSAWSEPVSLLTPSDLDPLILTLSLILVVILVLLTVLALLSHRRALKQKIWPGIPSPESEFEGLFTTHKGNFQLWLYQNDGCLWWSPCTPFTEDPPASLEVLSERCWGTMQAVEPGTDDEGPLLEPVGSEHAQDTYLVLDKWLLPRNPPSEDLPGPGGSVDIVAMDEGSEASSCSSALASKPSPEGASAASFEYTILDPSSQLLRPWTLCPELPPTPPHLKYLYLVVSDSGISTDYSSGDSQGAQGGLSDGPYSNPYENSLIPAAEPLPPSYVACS

T3: Recombinant human EPOR ectodomain-Fc (human, UniProt P19235 25-250)
T3 construct: erythropoietin receptor (EPOR), human, ectodomain; Captured on the chip with a human antibody capture kit, by its Fc; also called EPOR-Fc; rhEPOR ectodomain-Fc; source: bought: R&D Systems
T3 sequence (looked up): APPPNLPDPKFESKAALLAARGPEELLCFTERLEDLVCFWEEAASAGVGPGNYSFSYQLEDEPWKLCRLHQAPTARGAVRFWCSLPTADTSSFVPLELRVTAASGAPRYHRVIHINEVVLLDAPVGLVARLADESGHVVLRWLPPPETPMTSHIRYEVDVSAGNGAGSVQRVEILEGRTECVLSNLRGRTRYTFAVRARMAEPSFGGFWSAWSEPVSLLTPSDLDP


Assays:
human EPOR ectodomain-Fc = target: T1, human EPOR ectodomain-Fc; assay: SPR analysis, human EPOR ectodomain; type: binding; conditions: for binding against EPOR: exact dissociation constants not determinable, too slow dissociation
Description: (§1) Binding constants of the STaMPtides and monomeric macrocyclic peptides to their corresponding receptor ectodomains were determined by SPR analysis using Biacore T200 (Cytiva). HBS-EP + buffer (Cytiva) containing 0.1% dimethyl sulfoxide (DMSO; Sigma-Aldrich, St. Louis, MO, USA) was used as the running buffer. As ligands, recombinant human Met ectodomain-Fc and human EPOR ectodomain-Fc were immobilized to around 1000 response units on CM5 sensor chips using a human antibody capture kit (Cytiva). STaMPtides and monomeric macrocyclic peptides were injected in five concentrations at a flow rate of 30 μL/min using a single-cycle kinetics method. Binding constants were quantified by analysis of the 1:1 binding model.

EPOR = target: T2, EPOR; assay: EPOR-JAK2 functional assay (PathHunter); type: cell-based; conditions: for EPOR activation by serially diluted supernatants: decellularized supernatant; for EC50: purified, 3 h at room temperature, read-out: half-maximal effective concentration (EC50)
Description: Agonistic activity against EPOR was assessed using the PathHunter® eXpress EpoR-JAK2 Functional Assay Kit (DiscoverX) according to the manufacturer’s instructions. Briefly, cells were seeded on a 96-well cell culture plate and incubated overnight in 5% CO2 at 37 °C. […] The cells were lysed with a substrate reagent, and chemiluminescence was detected using a Nivo plate reader (PerkinElmer).

Met = assay: Cell-based phospho-Met ELISA (HuCCT1 cells); design: species or system human; conditions: phospho-Met ELISA and Erk signaling reporter assay
Description: The phosphorylation level of Met was evaluated according to a previously reported method[6],[32], with slight modifications. In brief, HuCCT-1 cells at a density of 10,000 cells/well were seeded on 96-well cell culture plates and incubated overnight in 5% CO2 at 37 °C. The cells were stimulated by rhHGF, purified HGF mimetic STaMPtides, and monomeric aMD4dY for 10 min in a 5% CO2 incubator at 37 °C. Next, cells were fixed using 4% paraformaldehyde in phosphate-buffered saline (PBS) for 20 min. Cells were washed three times with PBS and blocked with 1% BSA and 0.02% Triton X-100 in PBS for 30 min at room temperature. Cells were incubated with 1:1000 diluted phospho-Met (Tyr1234/1235) (D26) XP Rabbit mAb (Cell Signaling Technology) supplemented with 1% BSA in PBS at 4 °C overnight. After washing three times with PBS, the cells were incubated with 1:1000 diluted […] HRP-linked IgG antibody (Cell Signaling Technology) supplemented with 1% BSA in PBS at room temperature for 3 h. Cells were washed four times with PBS and incubated with 100 μL TMB substrate for 30 min. The reaction was stopped with an equal volume of 0.2 N sulfuric acid, and absorbance was quantified at 450 nm by the Molecular Imager ChemiDoc XRS System (Bio-Rad).

[1] = target: T4, recombinant human Met ectodomain-Fc (Homo sapiens, UniProt P08581); assay: SPR analysis, human Met ectodomain; type: binding
T4 construct: recombinant human Met ectodomain-Fc; purchased R&D Systems
T4 sequence (P08581 25-932 limits assumed): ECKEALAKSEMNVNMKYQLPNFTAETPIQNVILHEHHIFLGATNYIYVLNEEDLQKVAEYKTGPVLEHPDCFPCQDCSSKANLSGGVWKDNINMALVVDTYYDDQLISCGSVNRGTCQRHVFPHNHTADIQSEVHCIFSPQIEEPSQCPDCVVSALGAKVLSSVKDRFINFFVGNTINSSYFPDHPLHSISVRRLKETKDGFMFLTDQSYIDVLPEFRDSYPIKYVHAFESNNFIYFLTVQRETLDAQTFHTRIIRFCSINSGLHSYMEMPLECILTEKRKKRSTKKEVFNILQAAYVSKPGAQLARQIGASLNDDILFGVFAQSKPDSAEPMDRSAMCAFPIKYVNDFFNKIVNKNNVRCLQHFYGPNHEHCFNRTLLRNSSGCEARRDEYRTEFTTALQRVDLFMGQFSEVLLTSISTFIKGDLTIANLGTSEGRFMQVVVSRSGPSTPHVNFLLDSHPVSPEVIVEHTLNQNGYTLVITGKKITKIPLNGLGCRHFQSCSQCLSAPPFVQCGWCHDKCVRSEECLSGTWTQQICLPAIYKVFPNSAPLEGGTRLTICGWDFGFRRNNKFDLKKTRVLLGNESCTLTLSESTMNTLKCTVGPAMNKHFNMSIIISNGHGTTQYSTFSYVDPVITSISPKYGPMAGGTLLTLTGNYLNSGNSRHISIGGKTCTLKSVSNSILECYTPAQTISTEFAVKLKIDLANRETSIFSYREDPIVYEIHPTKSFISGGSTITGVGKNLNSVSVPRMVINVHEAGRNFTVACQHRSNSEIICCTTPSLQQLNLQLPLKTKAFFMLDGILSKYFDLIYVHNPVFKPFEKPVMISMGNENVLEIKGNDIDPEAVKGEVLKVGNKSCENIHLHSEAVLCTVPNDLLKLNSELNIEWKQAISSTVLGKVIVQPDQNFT
Description: as §1

[2] = target: T3, Recombinant human EPOR ectodomain-Fc; assay: SPR; Biacore T200; receptor ectodomain-Fc immobilised to around 1000 RU on CM5 chip by human antibody capture kit; peptides injected in five concentrations at 30 uL/min, single-cycle kinetics; HBS-EP+ buffer with 0.1% DMSO; 1:1 binding model; three runs (N 1-3) and their average
[3] = target: T3, Recombinant human EPOR ectodomain-Fc; assay: SPR; Biacore T200; receptor ectodomain-Fc immobilised to around 1000 RU on CM5 chips with a human antibody capture kit; peptides injected in five concentrations at 30 uL/min, single-cycle kinetics; HBS-EP+ buffer with 0.1% DMSO; 1:1 binding model; mean and SD of triplicate experiments; conditions: both partners purified
hPBMCs = assay: Colony-forming assay; type: cell-based, human; conditions: at doses of 33 ng/mL or higher, 13 days
Description: Next, 1.1 mL of the mixture was seeded in a 6-well cell culture plate and cultured for 13 days in 5% CO2 at 37 °C. At day 13, colony numbers were counted, and images were taken by inverted microscopy and BZ-X fluorescence microscopy.

[4] = target: T5, Recombinant human Met ectodomain-Fc (human, UniProt P08581 25-932); assay: SPR; Biacore T200; receptor ectodomain-Fc immobilised to around 1000 RU on CM5 chips with a human antibody capture kit; peptides injected in five concentrations at 30 uL/min, single-cycle kinetics; HBS-EP+ buffer with 0.1% DMSO; 1:1 binding model; mean and SD of triplicate experiments; conditions: both partners purified
T5 construct: Met, receptor of hepatocyte growth factor, human, ectodomain; Captured on the chip with a human antibody capture kit, by its Fc; also called Met-Fc; source: bought: R&D Systems
T5 sequence (P08581 25-932): as the sequence (P08581 25-932 limits assumed) above

Row | Molecule | kd (human EPOR ectodomain-Fc; Table S1, Average of N 1-3) [M⁻¹ s⁻¹] | KD (human EPOR ectodomain-Fc; Table S1, N 1) [pM] | kd (human EPOR ectodomain-Fc; Table S1, N 1) [M⁻¹ s⁻¹] | KD (human EPOR ectodomain-Fc; Table S1, N 2) [pM] | kd (human EPOR ectodomain-Fc; Table S1, N 2) [M⁻¹ s⁻¹] | KD (human EPOR ectodomain-Fc; Table S1, N 3) [pM] | kd (human EPOR ectodomain-Fc; Table S1, N 3) [M⁻¹ s⁻¹] | binding against EPOR (human EPOR ectodomain-Fc) | Kd [2] [nM] | Kd [3] [nM] | further results
1 | CSCC[C@@H]1NC(=O)[C@H](Cc2c[nH]cn2)NC(=O)[C@@H](NC(=O)[C@H](C)NC(=O)[C@H](Cc2ccc(O)cc2)NC(=O)[C@H](CC(C)C)NC(=O)CNC(=O)CN)CSSC[C@@H](C(=O)N[C@@H](CCC(N)=O)C(=O)N2CCC[C@H]2C(=O)N[C@@H](CC(C)C)C(=O)N[C@@H](CCCNC(=N)N)C(=O)NCC(=O)O)NC(=O)[C@H](C(C)C)NC(=O)[C@H](Cc2c[nH]c3ccccc23)NC(=O)[C@H]([C@@H](C)O)NC(=O)[C@H](CCSC)NC(=O)[C@@H]2CCCN2C(=O)CNC1=O [EMP35, reference compound] | 1e-05 | 89 | 1e-05 | 150 | 1e-05 | 1300 | 1e-05 | strong binding potency |  |  | agonist potency weaker than STaMPtides (EPOR): ~ 1000 times
2 | AETGGLYACHMGPMTWVCQPLRGAAPAAPAPGGLYACHMGPMTWVCQPLRG (disulfide 9-18, 37-46) [EMP-PA8] | 1e-05 | 34 | 1e-05 | 26 | 1e-05 | 30 | 1e-05 | strong binding potency |  |  | association rate higher than that of EMP35 (human EPOR ectodomain-Fc): 5–10 times; Kd (human EPOR ectodomain-Fc; Table S1, Average of N 1-3): 0.03 nM; EPOR activation by serially diluted supernatants (EPOR): activated EPOR, even at high dilutions; EC50 (EPOR): 0.022 nM
3 | aMD4dY: modified macrocyclic Met-binding peptide: aMD4 without N-terminal D-Tyr, disulfide instead of thioether linkage (CRQFNRRTHEVWNLDC-OH; disulfide 1-16; N-terminus assumed; SMILES CC(C)C[C@@H]1NC(=O)[C@H](CC(N)=O)NC(=O)[C@H](Cc2c[nH]c3ccccc23)NC(=O)[C@H](C(C)C)NC(=O)[C@H](CCC(=O)O)NC(=O)[C@H](Cc2c[nH]cn2)NC(=O)[C@H]([C@@H](C)O)NC(=O)[C@H](CCCNC(=N)N)NC(=O)[C@H](CCCNC(=N)N)NC(=O)[C@H](CC(N)=O)NC(=O)[C@H](Cc2ccccc2)NC(=O)[C@H](CCC(N)=O)NC(=O)[C@H](CCCNC(=N)N)NC(=O)[C@@H](N)CSSC[C@@H](C(=O)O)NC(=O)[C@H](CC(=O)O)NC1=O) |  |  |  |  |  |  |  |  |  |  | Met phosphorylation and Erk-SRE signaling activation (Met): did not activate Met; binding to human Met [1]: retained its binding capacity to human Met; kd ([1]; Table S1, Average of N 1-3): 0.045 M⁻¹ s⁻¹; KD ([1]; Table S1, N 1): 39 nM; kd ([1]; Table S1, N 1): 0.04 M⁻¹ s⁻¹; KD ([1]; Table S1, N 2): 53 nM; kd ([1]; Table S1, N 2): 0.05 M⁻¹ s⁻¹; KD ([1]; Table S1, N 3): 44 nM; kd ([1]; Table S1, N 3): 0.044 M⁻¹ s⁻¹
4 | EMP-PA22 (designed binder, disulfide 9-18, 51-60 (inferred), Expressed with the CspB signal peptide of C. glutamicum ATCC13869; also called EMP-PA22 (STaMPtide); EPO mimetic STaMPtide; source: C. glutamicum YPS010, secreted into the supernatant, purified (RP-HPLC)) AETGGLYACHMGPMTWVCQPLRGAAPAAPAPAAPAAPAPAAPAAPGGLYACHMGPMTWVCQPLRG |  |  |  |  |  |  |  |  | < 0.0104 | < 0.013 | 
5 | EMP-PA22: EPO mimetic STaMPtide, EMP35 dimerized with 22-amino-acid PA linker (disulfide 9-18, 51-60 (inferred)) AETGGLYACHMGPMTWVCQPLRGAAPAAPAPAAPAAPAPAAPAAPGGLYACHMGPMTWVCQPLRG | 1e-05 | 14 | 1e-05 | 15 | 1e-05 | 10 | 1e-05 | strong binding potency |  |  | erythroid colony formation efficiency (hPBMCs): equivalent to or higher than that of 10 ng/mL of rhEPO; association rate higher than that of EMP35 (human EPOR ectodomain-Fc): 5–10 times; EPOR activation by serially diluted supernatants (EPOR): activated EPOR, even at high dilutions; EC50 (EPOR): 0.22 nM
6 | GGLYACHMGPMTWVCQPLRG (disulfide 6-15, also called EMP35 (Monomer); monomeric EMP35; source: synthetic peptide (GenScript Japan)) [EMP35] |  |  |  |  |  |  |  |  | < 0.0887 | < 0.5 | 
7 | EMP-PA8 (designed binder, disulfide 9-18, 37-46 (inferred), Expressed with the CspB signal peptide of C. glutamicum ATCC13869; also called EMP-PA8 (STaMPtide); EPO mimetic STaMPtide; source: C. glutamicum YPS010, secreted into the supernatant, purified (RP-HPLC)) AETGGLYACHMGPMTWVCQPLRGAAPAAPAPGGLYACHMGPMTWVCQPLRG |  |  |  |  |  |  |  |  | < 0.0257 | < 0.03 | 
8 | CRQFNRRTHEVWNLDC-OH (disulfide 1-16; N-terminus assumed; SMILES CC(C)C[C@@H]1NC(=O)[C@H](CC(N)=O)NC(=O)[C@H](Cc2c[nH]c3ccccc23)NC(=O)[C@H](C(C)C)NC(=O)[C@H](CCC(=O)O)NC(=O)[C@H](Cc2c[nH]cn2)NC(=O)[C@H]([C@@H](C)O)NC(=O)[C@H](CCCNC(=N)N)NC(=O)[C@H](CCCNC(=N)N)NC(=O)[C@H](CC(N)=O)NC(=O)[C@H](Cc2ccccc2)NC(=O)[C@H](CCC(N)=O)NC(=O)[C@H](CCCNC(=N)N)NC(=O)[C@@H](N)CSSC[C@@H](C(=O)O)NC(=O)[C@H](CC(=O)O)NC1=O, also called aMD4dY (Monomer); monomeric aMD4dY; source: synthetic peptide (GenScript Japan)) [aMD4dY] |  |  |  |  |  |  |  |  |  |  | Kd [4]: 45 nM
